Test results from PMC4908412, “β-arrestin-1 contributes to brown fat function and directly interacts with PPARα and PPARγ” (Scientific Reports, 2016).
Changes are numbered by the printed parent chain. Numbers in names are those of the source. One block for each binder: values may come before it.

B1: 9-cis-retinoic acid receptor α-ligand binding domain (amino acids 196–435) (domain or fragment, human, UniProt P19793 223-462, looked up)
chain: TSSANEDMPVERILEAELAVEPKTETYVEANMGLNPSSPNDPVTNICQAADKQLFTLVEWAKRIPHFSELPLDDQVILLRAGWNELLIASFSHRSIAVKDGILLATGLHVHRNSAHSAGVGAIFDRVLTELVSKMRDMQMDKTELGCLRAIVLFNPDSKGLSNPAEVEALREKVYASLEAYCKHKYPEQPGRFAKLLLRLPALRSIGLKCLEHLFFFKLIGDTPIDTFLMEMLEAPHQMT
notes: also called RXRα-LBD; source: E. coli BL21 (DE3)-CodonPlus, purified
B2: PPARα-LBD D371A (domain or fragment, human, UniProt Q07869 196-468, looked up)
chain: EDSETADLKSLAKRIYEAYLKNFNMNKVKARVILSGKASNNPPFVIHDMETLCMAEKTLVAKLVANGIQNKEAEVRIFHCCQCTSVETVTELTEFAKAIPGFANLDLNDQVTLLKYGVYEAIFAMLSSVMNKDGMLVAYGNGFITREFLKSLRKPFCDIMEPKFDFAMKFNALELADSDISLFVAAIICCGDRPGLLNVGHIEKMQEGIVHVLRLHLQSNHPDDIFLFPKLLQKMADLRQLVTEHAQLVQIIKKTESDAALHPLLQEIYRDMY
notes: also called PPARα M2; source: E. coli BL21 (DE3)-CodonPlus, purified
B3: PPARγ-LBD D380A (domain or fragment, human, UniProt P37231-2 204-477, looked up)
chain: LNPESADLRALAKHLYDSYIKSFPLTKAKARAILTGKTTDKSPFVIYDMNSLMMGEDKIKFKHITPLQEQSKEVAIRIFQGCQFRSVEAVQEITEYAKSIPGFVNLDLNDQVTLLKYGVHEIIYTMLASLMNKDGVLISEGQGFMTREFLKSLRKPFGDFMEPKFEFAVKFNALELADSDLAIFIAVIILSGDRPGLLNVKPIEDIQDNLLQALELQLKLNHPESSQLFAKLLQKMTDLRQIVTEHVQLLQVIKKTETDMSLHPLLQEIYKDLY
notes: also called PPARγ M2; source: E. coli BL21 (DE3)-CodonPlus, purified
B4: PPARα-ligand binding domain (amino acids 196–468) (domain or fragment, human, UniProt Q07869 196-468, looked up)
chain: B2 chain with A176D
modifications: biotinylated for biolayer interferometry; 15N-labeled for NMR
notes: The His tag is used for capture in the pulldown; also called PPARα-LBD; wild-type PPARα; source: E. coli BL21 (DE3)-CodonPlus, purified; not shown: His6, N-terminal, kept
B5: PPARγ-ligand binding domain (amino acids 204–477) (domain or fragment, human, UniProt P37231-2 204-477, looked up)
chain: B3 chain with A177D
modifications: biotinylated for biolayer interferometry; 15N-labeled for NMR
notes: The His tag is used for capture in the pulldown; also called PPARγ-LBD; wild-type PPARγ; source: E. coli BL21 (DE3)-CodonPlus, purified; not shown: His6, N-terminal, kept
B6: PPARγ-LBD L311G/N312G (domain or fragment, human, UniProt P37231-2 204-477, looked up)
chain: B3 chain with L108G, N109G, A177D
notes: also called PPARγ M1; source: E. coli BL21 (DE3)-CodonPlus, purified

Legend:
Settings in all cases: both partners purified
[1] = target: B4; assay: BLI; Octet Red 96; 50 μg/ml biotinylated PPARα-LBD or PPARγ-LBD (or their mutants) immobilised on streptavidin biosensors; analyte β-arrestin-1, βarr1M or peptides in solution (single 2 μM or serial dilutions, β-arrestin-1 0.5–32 μM); 25 °C; 2:1 heterogeneous ligand model and steady-state analysis
[2] = target: B5; assay: as above
[3] = target: B4; assay: as above; remark: listed apart in the source
[4] = target: B5; assay: as above; remark: listed apart in the source
[5] = target: B4; assay: BLI; competition: PPARα/γ-LBD and β-arrestin-1 with or without increasing amounts of RXRα-LBD (Supplementary Fig. 5b,c)
[6] = target: B5; assay: as above
[7] = target: B4; assay: BLI; RXRα-LBD with PPARα/γ-LBD; the tables and the methods name PPAR-LBD as ligand and RXRα-LBD as analyte, the legend of Fig. 2e,f says 50 μg/ml RXRα-LBD loaded on SAs with serial dilutions of PPARα/γ-LBD; 25 °C; 2:1 heterogeneous ligand model and steady-state analysis
[8] = target: B5; assay: as above
[9] = target: T1, β-arrestin-1 (recombinant rattus β-arrestin-1) (rat, UniProt P29066 1-418); assay: BLI; Octet Red 96; 50 μg/ml biotinylated PPARα-LBD or PPARγ-LBD (or their mutants) immobilised on streptavidin biosensors; analyte β-arrestin-1, βarr1M or peptides in solution (single 2 μM or serial dilutions, β-arrestin-1 0.5–32 μM); 25 °C; 2:1 heterogeneous ligand model and steady-state analysis
T1 construct: β-arrestin-1, rat (rattus), recombinant; also called βarr1; wild-type β-arrestin-1

[10] = target: T1, β-arrestin-1 (recombinant rattus …); assay: as above; remark: listed apart in the source
[11] = target: T2, β-arrestin-1 double mutant with L100A and L104A (rat, UniProt P29066 1-418, L100A | L104A); assay: as above
T2 construct: β-arrestin-1 with L100A and L104A; also called βarr1M; source: purified
T2 sequence (P29066 whole entry L100A/L104A): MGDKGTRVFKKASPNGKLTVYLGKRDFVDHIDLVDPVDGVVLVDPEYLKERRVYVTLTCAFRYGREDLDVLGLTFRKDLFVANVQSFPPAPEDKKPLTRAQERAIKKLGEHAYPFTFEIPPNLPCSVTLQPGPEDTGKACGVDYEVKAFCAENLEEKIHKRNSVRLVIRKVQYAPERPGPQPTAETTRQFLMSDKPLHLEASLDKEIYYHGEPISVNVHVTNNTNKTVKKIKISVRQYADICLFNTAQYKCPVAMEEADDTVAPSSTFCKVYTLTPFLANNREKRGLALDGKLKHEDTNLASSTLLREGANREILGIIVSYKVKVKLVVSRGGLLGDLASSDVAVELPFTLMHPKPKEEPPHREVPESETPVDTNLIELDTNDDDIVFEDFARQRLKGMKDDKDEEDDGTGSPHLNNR

T1 sequence (P29066 whole entry, the tested form may be a part): as the sequence (P29066 whole entry L100A/L104A) above, with A100L, A104L counted along it

- maximum response [1]: 0.27 nm
- maximum response [2]: 0.22 nm
- KD1 (2:1 HL model) [3]: 42 µM
- KD2 (2:1 HL model) [3]: 60.3 µM
- Kd [3]: 56000 nM
- koff1 (2:1 HL model) [3]: 0.000907 S^−1
- koff2 (2:1 HL model) [3]: 0.161 S^−1
- kon1 (2:1 HL model) [3]: 21.6 M^−1S^−1
- kon2 (2:1 HL model) [3]: 2660 M^−1S^−1
- KD1 (2:1 HL model) [4]: 557 µM
- KD2 (2:1 HL model) [4]: 521 µM
- Kd [4]: 560000 nM
- koff1 (2:1 HL model) [4]: 0.00323 S^−1
- koff2 (2:1 HL model) [4]: 0.132 S^−1
- kon1 (2:1 HL model) [4]: 5.8 M^−1S^−1
- kon2 (2:1 HL model) [4]: 2.53 M^−1S^−1
Binder: PAPEDKKPLTRLQERLIKKLG [synthetic β-arrestin-1 peptide harboring the LQERLIKKL sequence]

Binder: B1
- IC50 [5]: 880 nM
- IC50 [6]: 850 nM
- Kd [7]: 29 nM
- Kd [8]: 71 nM

Binder: B2
- Kd [9]: 4100 nM

Binder: B3
- Kd [10]: 1500 nM

Binder: B4
- Kd [9]: 3600 nM
- Kd [11]: 3900 nM

Binder: B5
- Kd [10]: 1400 nM

Binder: B6
- Kd [10]: 1900 nM
